In patent US20240092867A1 (UNIVERSITY OF CHICAGO, published 2024):

T1: recombinant human VEGF-A145 (human, UniProt P15692-6 27-171)
T1 sequence (looked up): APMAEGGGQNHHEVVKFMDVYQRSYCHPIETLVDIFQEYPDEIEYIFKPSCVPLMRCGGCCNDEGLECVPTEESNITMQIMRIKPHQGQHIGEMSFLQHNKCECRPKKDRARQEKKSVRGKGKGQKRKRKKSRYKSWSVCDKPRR

T2: recombinant laminin α3 2928-3150 protein (linker domain and LG4 domain) (human, UniProt Q16787 2928-3150)
T2 construct: range 2928-3150; Made in HEK-293F cells; also called laminin alpha 3 LG domain recombinant protein
T2 sequence: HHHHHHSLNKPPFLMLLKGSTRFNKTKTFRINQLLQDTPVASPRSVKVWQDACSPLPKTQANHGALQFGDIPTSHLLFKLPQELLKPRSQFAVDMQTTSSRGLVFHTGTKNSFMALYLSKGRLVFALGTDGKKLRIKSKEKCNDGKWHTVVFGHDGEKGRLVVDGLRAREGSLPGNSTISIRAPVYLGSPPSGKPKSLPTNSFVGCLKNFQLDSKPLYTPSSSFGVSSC

B1: vascular endothelial growth factor (VEGF)-A121 (ligand, human, UniProt P15692-9 27-147, looked up)
chain: APMAEGGGQNHHEVVKFMDVYQRSYCHPIETLVDIFQEYPDEIEYIFKPSCVPLMRCGGCCNDEGLECVPTEESNITMQIMRIKPHQGQHIGEMSFLQHNKCECRPKKDRARQEKCDKPRR
notes: mature; Purchased in mature form, not glycosylated

Key:
[1] = target: T3, vascular endothelial growth factor (VEGF)-A165 (human, UniProt P15692-4 27-191); assay: ELISA; peptides and vWF forms coated at 50 nM, VEGF-A in solution, detected with anti-VEGF-A antibody [panel B]
T3 construct: mature; Purchased in mature form, not glycosylated
Description: (§1) (A) Diagram of exon sequence of VEGF-A showing inclusion (+) or exclusion (−) of heparin binding domain exons for the different VEGF-A isoforms. […] Bound VEGF-A was detected using a specific antibody for VEGF-A (n=4, mean±SD). Statistical comparisons were done using ANOVA with Tukey's test compared with BSA control. **p<0.01.
(§2) ELISA was performed as previously reported1. […] After blocking with 2% BSA solution containing PBS-T, 1 μg/mL of recombinant human VEGF-A121 (PeproTech), recombinant human VEGF-A145 (R & D Systems), or recombinant human VEGF-A165 (PeproTech) was added. Bound VEGF-A was detected with 1 μg/mL of mouse anti-human VEGF-A antibody (clone: 26503, R & D systems). After 60 min of incubation, horseradish peroxidase (HRP) conjugated goat anti-mouse antibody (1:2000 dilution, Dako) was added and incubated for another 60 min. Color development and the absorbance measurement were done as described above.

[2] = target: T1, recombinant human VEGF-A145; assay: ELISA; peptides and vWF forms coated at 50 nM, VEGF-A in solution, detected with anti-VEGF-A antibody [panel C]
Description: as §1, §2

[3] = target: B1; assay: ELISA; peptides and vWF forms coated at 50 nM, VEGF-A in solution, detected with anti-VEGF-A antibody [panel D]
Description: as §1, §2

laminin-111 = target: T4, laminin-111 (human, UniProt P25391 18-3075; P07942 22-1786; P11047 34-1609); assay: ELISA, GF coated, laminin 10 nM
T4 construct: Full-length recombinant human laminin isoform (BioLamina); Chain composition is read from the isoform name

laminin-211 = target: T5, laminin-211 (human, UniProt P24043 23-3122; P07942 22-1786; P11047 34-1609); assay: ELISA, GF coated, laminin 10 nM
T5 construct: Full-length recombinant human laminin isoform (BioLamina); chains read from the isoform name

laminin-332 = target: T6, laminin-332 (human, UniProt Q16787 28-1724; Q13751 18-1172; Q13753 22-1193, limits assumed); assay: ELISA, GF coated, laminin 10 nM
T6 construct: Full-length recombinant human laminin isoform (BioLamina); chains read from the isoform name
T6 sequence (Q16787 other isoform, or with tags, fused parts or gaps limits assumed, chain 1 of 3): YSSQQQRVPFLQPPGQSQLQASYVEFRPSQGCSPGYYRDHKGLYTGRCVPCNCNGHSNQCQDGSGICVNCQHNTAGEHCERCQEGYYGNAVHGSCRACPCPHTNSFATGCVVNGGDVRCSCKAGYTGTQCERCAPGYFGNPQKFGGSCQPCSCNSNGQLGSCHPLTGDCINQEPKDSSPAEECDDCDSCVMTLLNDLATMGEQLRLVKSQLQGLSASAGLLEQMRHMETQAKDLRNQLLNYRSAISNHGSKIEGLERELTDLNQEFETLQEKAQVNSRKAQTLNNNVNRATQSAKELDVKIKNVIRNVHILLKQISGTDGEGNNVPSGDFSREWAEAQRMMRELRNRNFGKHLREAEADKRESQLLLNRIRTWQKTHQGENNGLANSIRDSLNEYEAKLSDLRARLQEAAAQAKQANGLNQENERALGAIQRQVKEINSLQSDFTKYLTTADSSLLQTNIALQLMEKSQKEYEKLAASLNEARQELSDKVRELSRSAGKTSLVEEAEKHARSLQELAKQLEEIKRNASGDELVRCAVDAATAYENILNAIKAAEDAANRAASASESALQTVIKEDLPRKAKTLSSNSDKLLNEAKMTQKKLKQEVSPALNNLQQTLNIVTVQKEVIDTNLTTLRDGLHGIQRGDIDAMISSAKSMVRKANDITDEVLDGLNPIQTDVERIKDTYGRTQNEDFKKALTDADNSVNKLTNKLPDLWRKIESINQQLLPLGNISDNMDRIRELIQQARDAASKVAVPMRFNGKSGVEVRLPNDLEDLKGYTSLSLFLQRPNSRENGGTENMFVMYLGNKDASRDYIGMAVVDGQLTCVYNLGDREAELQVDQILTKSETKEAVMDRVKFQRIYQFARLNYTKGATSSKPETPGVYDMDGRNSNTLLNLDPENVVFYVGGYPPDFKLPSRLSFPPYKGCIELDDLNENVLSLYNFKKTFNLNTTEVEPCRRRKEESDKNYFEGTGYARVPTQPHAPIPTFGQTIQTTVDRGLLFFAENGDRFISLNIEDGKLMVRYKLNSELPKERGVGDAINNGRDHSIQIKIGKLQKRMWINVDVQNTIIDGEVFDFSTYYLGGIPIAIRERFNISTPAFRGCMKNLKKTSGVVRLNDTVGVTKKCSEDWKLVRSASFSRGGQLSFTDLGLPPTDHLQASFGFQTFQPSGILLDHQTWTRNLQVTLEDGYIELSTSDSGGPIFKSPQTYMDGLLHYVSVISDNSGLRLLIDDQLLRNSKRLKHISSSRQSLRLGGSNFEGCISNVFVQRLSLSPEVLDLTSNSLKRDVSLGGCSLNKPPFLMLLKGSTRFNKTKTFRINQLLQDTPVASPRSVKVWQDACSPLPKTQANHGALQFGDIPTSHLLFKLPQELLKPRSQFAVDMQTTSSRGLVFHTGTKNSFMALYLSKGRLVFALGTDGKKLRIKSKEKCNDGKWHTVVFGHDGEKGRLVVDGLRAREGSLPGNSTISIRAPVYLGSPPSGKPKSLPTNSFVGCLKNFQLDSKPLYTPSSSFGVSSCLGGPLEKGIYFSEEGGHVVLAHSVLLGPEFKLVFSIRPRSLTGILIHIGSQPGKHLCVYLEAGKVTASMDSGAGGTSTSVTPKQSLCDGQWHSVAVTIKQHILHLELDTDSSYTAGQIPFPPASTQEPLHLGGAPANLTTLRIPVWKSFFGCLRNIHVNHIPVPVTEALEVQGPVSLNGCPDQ
T6 sequence (Q13751 18-1172 limits assumed, chain 2 of 3): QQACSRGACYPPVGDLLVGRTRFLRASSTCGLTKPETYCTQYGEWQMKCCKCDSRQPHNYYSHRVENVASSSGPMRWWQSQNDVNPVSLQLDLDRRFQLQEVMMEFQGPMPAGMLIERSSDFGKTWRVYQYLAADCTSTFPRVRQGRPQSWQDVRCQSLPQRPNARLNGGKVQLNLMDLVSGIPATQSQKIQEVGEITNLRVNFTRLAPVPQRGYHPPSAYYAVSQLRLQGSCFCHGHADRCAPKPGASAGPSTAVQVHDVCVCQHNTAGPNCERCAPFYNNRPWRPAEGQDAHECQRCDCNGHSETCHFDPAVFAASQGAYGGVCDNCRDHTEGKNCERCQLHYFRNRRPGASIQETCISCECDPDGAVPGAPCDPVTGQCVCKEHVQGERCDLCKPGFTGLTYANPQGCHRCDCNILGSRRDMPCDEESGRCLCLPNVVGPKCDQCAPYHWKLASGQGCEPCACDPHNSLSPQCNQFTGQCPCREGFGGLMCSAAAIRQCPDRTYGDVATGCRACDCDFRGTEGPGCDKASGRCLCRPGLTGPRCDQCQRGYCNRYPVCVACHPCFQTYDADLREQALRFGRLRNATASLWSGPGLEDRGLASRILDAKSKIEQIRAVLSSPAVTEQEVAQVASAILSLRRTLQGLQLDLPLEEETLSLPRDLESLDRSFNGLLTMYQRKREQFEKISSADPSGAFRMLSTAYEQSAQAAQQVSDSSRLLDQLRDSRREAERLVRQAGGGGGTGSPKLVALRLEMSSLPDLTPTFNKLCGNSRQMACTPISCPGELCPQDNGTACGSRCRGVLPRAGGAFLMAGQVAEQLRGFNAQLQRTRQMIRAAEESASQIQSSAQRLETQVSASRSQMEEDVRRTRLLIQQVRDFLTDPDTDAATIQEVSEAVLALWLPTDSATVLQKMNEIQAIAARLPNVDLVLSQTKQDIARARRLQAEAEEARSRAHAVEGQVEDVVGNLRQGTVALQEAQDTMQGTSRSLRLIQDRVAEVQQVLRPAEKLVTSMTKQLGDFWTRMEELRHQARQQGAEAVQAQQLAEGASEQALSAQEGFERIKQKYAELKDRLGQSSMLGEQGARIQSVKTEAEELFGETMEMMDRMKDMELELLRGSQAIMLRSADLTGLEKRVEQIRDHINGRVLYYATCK
T6 sequence (Q13753 22-1193 limits assumed, chain 3 of 3): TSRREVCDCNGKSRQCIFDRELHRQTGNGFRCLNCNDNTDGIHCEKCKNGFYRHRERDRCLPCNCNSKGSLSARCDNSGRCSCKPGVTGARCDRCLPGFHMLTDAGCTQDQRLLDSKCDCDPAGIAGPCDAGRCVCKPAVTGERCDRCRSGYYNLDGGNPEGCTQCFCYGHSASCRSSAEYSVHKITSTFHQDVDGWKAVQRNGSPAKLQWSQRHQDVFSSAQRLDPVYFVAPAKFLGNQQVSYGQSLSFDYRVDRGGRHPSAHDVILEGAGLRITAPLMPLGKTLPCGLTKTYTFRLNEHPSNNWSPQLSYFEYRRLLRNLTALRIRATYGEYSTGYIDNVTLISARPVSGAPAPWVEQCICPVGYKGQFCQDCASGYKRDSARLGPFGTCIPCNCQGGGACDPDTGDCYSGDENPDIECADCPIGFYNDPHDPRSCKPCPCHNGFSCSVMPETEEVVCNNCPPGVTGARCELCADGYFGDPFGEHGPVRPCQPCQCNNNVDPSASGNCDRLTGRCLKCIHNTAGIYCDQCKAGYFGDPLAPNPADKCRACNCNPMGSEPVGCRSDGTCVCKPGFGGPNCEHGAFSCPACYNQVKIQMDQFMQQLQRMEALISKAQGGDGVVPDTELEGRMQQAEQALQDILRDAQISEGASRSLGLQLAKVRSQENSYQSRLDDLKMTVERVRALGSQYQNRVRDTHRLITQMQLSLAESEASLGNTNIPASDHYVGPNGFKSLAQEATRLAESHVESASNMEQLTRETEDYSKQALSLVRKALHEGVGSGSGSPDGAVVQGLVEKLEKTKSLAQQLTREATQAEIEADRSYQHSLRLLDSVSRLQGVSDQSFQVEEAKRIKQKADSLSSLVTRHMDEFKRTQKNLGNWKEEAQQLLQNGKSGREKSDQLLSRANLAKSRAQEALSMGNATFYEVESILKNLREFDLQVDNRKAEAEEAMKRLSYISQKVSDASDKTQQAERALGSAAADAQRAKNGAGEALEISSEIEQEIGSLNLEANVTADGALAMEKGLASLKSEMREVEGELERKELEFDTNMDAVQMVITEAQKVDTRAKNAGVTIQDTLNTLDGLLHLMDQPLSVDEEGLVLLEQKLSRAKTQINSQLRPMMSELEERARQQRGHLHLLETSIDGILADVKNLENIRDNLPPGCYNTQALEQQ

laminin-411 = target: T7, laminin-411 (human, UniProt Q16363 25-1823; P07942 22-1786; P11047 34-1609); assay: ELISA, GF coated, laminin 10 nM
T7 construct: Full-length recombinant human laminin isoform (BioLamina); chains read from the isoform name

laminin-421 = target: T8, laminin-421 (human, UniProt Q16363 25-1823; P55268 33-1798; P11047 34-1609); assay: ELISA, GF coated, laminin 10 nM
T8 construct: Full-length recombinant human laminin isoform (BioLamina); chains read from the isoform name

laminin-511 = target: T9, laminin-511 (human, UniProt O15230 36-3695; P07942 22-1786; P11047 34-1609); assay: ELISA, GF coated, laminin 10 nM
T9 construct: Full-length recombinant human laminin isoform (BioLamina); chains read from the isoform name

laminin-521 = target: T10, laminin-521 (human, UniProt O15230 36-3695; P55268 33-1798; P11047 34-1609); assay: ELISA, GF coated, laminin 10 nM
T10 construct: Full-length recombinant human laminin isoform (BioLamina); chains read from the isoform name

[4] = target: T2, recombinant laminin α3 2928-3150 …; assay: ELISA, LG domain protein coated
Description: Affinity of GFs against recombinant laminin LG domains. ELISA plates were coated with 1 μg/mL (A) α3₂₉₂₈₋₃₁₅₀, (B) α4₈₂₆₋₁₈₁₆, or (C) α5₃₀₂₆₋₃₄₈₂ and further incubated with 1 μg/mL of VEGF-A165, VEGF-A121, PlGF-2, PlGF-1, PDGF-BB, or FGF-2 solution. Bound GFs were detected using a specific antibody for each GF (n=4, mean±SEM). Statistical analyses were done using the Mann-Whitney U test by comparing the signals obtained from the laminin domain- and the BSA-coated wells. *p<0.05, **p<0.01. […] A SPR chip was functionalized with the laminin α3₂₉₂₈₋₃₁₅₀ recombinant protein (˜1000 RU), and each GF was flowed over the chip at indicated concentrations. Curves represent the specific responses (in RU) to laminin. Experimental curves were fitted with Langmuir binding kinetics.
ELISA tests were performed as described above. […] 1 μg/mL of BSA served as non-binding protein control. After blocking with 2% BSA PBS-0.05% Tween 20 (PBS-T) solution, 1 μg/mL of the recombinant human proteins (VEGF-A121, VEGF-A165, PlGF-1, PlGF-2, PDGF-BB or FGF-2) or 10 μg/mL of biotinylated heparin (Sigma-Aldrich) were added. Bound GF was detected with biotinylated antibodies for human VEGF, PlGF, PDGF-BB, or FGF-2 (R&D Systems). The antibodies were detected by streptavidin-HRP (R&D Systems).

human plasma-derived vWF = target: T11, human plasma-derived vWF (human, UniProt P04275 764-2813); assay: ELISA, GF coated 50 nM, vWF 1 µg/mL
T11 construct: mature; also called plasma-derived purified vWF; von Willebrand factor

[5] = target: T12, pro-peptide containing recombinant vWF (UniProt P04275 23-2813); assay: ELISA; peptides and vWF forms coated at 50 nM, VEGF-A in solution, detected with anti-VEGF-A antibody [panel D]
T12 construct: also called immature, pro-peptide-containing recombinant vWF
Description: as §1, §2

[6] = target: T13, recombinant human vWF A2 domain (human, UniProt P04275 1498-1665); assay: as above
T13 construct: domain: A2
Description: as §1, §2

[7] = target: T14, recombinant human vWF A3 domain (human, UniProt P04275 1683-1874); assay: as above
T14 construct: domain: A3
Description: as §1, §2

[8] = target: T15, recombinant human vWF A1 domain (human, UniProt P04275 1261-1468, limits assumed); assay: ELISA; recombinant vWF A1 domain coated (10 µg/mL, legend paragraph 67), GF in solution, detected with anti-VEGF-A antibody [panel B]
T15 construct: domain: A1; also called vWF A1 recombinant protein; recombinant A1 domain
Description: FIGS. 18A-C. […] Bound GFs were detected using a specific antibody for each GF (n=4, mean±SD). Statistical analyses were done using ANOVA with Tukey's test or Student's t-test. *p<0.05, **p<0.01.
ELISA tests were performed as described above. […] After blocking with 2% BSA solution containing PBS-T, 1 μg/mL of the recombinant human proteins VEGF-A121, VEGF-A165, PlGF-1, PlGF-2, PDGF-BB, FGF-2, CXCL-12α and CXCL-12γ were added. 1 μg/mL of BSA served as non-binding protein control. Bound GF or chemokine was detected with biotinylated antibodies for human VEGF-A, PlGF, PDGF-BB, FGF-2, or CXCL-12 (R & D Systems). The antibodies were detected by streptavidin-HRP (R & D Systems). Color development and the absorbance measurement were done as described above.

binding result (laminin-111)	binding result (laminin-211)	binding result (laminin-332)	binding result (laminin-411)	binding result (laminin-421)	binding result (laminin-511)	binding result (laminin-521)	binding result [4]	binding result (human plasma-derived vWF)	Binder	binding result [1]	binding result [2]	binding result [3]	binding result [5]	binding result [6]	binding result [7]	binding result [8]
									YIGLKDSKSPSELSSIASQVKYAC (not in the list MOLECULES; also called vWF A1 HBD with Arg substituted by Ser; mutated HBD peptide) [Arg substituted HBD]	no binding (tested: 1 µg/mL VEGF-A165 (single concentration))	no binding (tested: 1 µg/mL VEGF-A145 (single concentration))	no binding (tested: 1 µg/mL VEGF-A121 (single concentration))				
no binding (tested: A450 0.1)	no binding (tested: A450 0.1)	no binding (tested: A450 0.1)	no binding (tested: A450 0.1)	no binding (tested: A450 0.1)	no binding (tested: A450 0.1)	no binding (tested: A450 0.1)	no binding (tested: 1 µg/mL)	no binding	B1				no binding (tested: 1 µg/mL VEGF-A121 (single concentration))	no binding (tested: 1 µg/mL VEGF-A121 (single concentration))	no binding (tested: 1 µg/mL VEGF-A121 (single concentration))	no binding (tested: 1 µg/mL VEGF-A121 (single concentration))
